Source: US20220195068A1 (TENEOBIO, published 2022)
Positions count from the first letter of the chain named. One block for each binder: values may come before it.

Assays:
[1] = target: T1, human PSMA (Prostate Specific Membrane Antigen, Glutamate Carboxypeptidase II) on cells (human, UniProt Q04609 1-750); test: flow cytometry on LNCaP cells
T1 construct: whole, on cells; the cell line is named under assay; also called cell surface expressed PSMA; FOLH1
Method: Briefly, 50,000 target cells were stained with a dilution series of purified UniAbs™ for 30 minutes at 4° C. Following incubation, the cells were washed twice with flow cytometry buffer (1X PBS, 1% BSA, 0.1% NaN₃) and stained with goat F(ab')₂ anti-human IgG conjugated to R-phycoerythrin (PE) (Southern Biotech, cat. #2042-09) to detect cell-bound antibodies. After a 20-minute incubation at 4° C., the cells were washed twice with flow cytometry buffer and the mean fluorescence intensity (MFI) was measured by flow cytometry. The MFI of cells stained with secondary antibody alone were used for determination of background signal and binding of each antibody was converted to fold over background. Binding to cynomolgus PSMA positive cells was determined using the same protocol with the following modifications: the target cells were from Freestyle 293-F cells (ThermoFisher R79007) transiently transfected to express the extracellular domain of cynomolgus PSMA. In some experiments EC50 values were calculated using GraphPad Prism 7.

[2] = target: T1, human PSMA (Prostate Specific Membrane …); test: flow cytometry cell binding, 22Rv1 cells
[3] = target: T1, human PSMA (Prostate Specific Membrane …); test: cell-based or functional assay
[4] = target: T1, human PSMA (Prostate Specific Membrane …); test: flow cytometry cell binding, MDA-PCa-2b cells
[5] = target: T1, human PSMA (Prostate Specific Membrane …); test: flow cytometry cell binding, PC3-PSMA cells
[6] = target: T1, human PSMA (Prostate Specific Membrane …); test: flow cytometry cell binding, LNCAP cells

T1 sequence (Q04609 whole entry): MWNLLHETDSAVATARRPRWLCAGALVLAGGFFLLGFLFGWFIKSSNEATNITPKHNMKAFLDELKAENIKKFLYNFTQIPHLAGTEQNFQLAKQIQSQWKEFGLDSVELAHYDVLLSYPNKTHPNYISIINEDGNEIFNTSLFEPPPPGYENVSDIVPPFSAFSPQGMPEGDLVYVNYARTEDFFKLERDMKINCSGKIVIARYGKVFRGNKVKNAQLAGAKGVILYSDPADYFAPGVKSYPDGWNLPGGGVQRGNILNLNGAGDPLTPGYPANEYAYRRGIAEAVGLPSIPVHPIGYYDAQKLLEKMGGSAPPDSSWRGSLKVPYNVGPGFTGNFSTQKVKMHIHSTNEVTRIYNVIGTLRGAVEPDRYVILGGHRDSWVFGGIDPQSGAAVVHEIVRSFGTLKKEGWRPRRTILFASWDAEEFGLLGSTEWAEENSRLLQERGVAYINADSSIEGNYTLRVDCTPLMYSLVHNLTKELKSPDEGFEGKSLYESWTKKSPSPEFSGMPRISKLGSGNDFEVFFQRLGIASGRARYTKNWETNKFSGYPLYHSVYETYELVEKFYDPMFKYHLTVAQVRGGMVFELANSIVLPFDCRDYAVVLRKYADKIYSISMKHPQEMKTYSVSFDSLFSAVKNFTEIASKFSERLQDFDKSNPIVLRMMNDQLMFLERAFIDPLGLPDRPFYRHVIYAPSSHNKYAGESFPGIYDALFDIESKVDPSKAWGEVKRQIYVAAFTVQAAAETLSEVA

fold over the background MFI signal [1]: 59 fold over background
B1: anti-PSMA heavy chain antibody clone ID 345505 (antibody, V domains shown)
VH: QVQLVESGGGVVQPGRSLRLSCAASGFTFISYGMHWVRQAPGKGLEGVAVIWYDGSNRYYADSVKGRFTISRDNSKNTLYLQMNSLRAEDTAVYYCAREPRIGYYYESSGYYSLDYRGQGTLVTVSS
notes: heavy chain-only antibody (UniAb), no light chain

fold over the background MFI signal [1]: 64 fold over background
B2: anti-PSMA heavy chain antibody clone ID 325932 (antibody, V domains shown)
VH: B1 VH with T28S, I30S
notes: as for B1

fold over the background MFI signal [1]: 37 fold over background
B3: anti-PSMA heavy chain antibody clone ID 345509 (antibody, V domains shown)
VH: B1 VH with V11L, R16G, T28S, I30S, R58K, L79M
notes: as for B1

fold over the background MFI signal [1]: 13 fold over background
B4: anti-PSMA heavy chain antibody clone ID 345510 (antibody, V domains shown)
VH: B1 VH with T28S, I30S, G47W, R58K, L79M
notes: as for B1

fold over the background MFI signal [1]: 55 fold over background
B5: anti-PSMA heavy chain antibody clone ID 345508 (antibody, V domains shown)
VH: B1 VH with T28S, I30S, L45P, G47W
notes: as for B1

EC50 [2]: 58 nM | IFNγ EC50, 22Rv1 cells [3]: 174 nM | IFNγ EC50, LNCAP cells [3]: 63 nM | IFNγ EC50, MDA-PCa-2b cells [3]: 116 nM | IFNγ EC50, PC3-PSMA cells [3]: 10.1 nM | IL-2 EC50, LNCAP cells [3]: 575 nM | IL-2 EC50, MDA-PCa-2b cells [3]: 38.5 nM | IL-2 EC50, PC3-PSMA cells [3]: 4.1 nM | EC50 [4]: 28 nM | EC50 [5]: 30 nM | EC50 [6]: 17 nM
B6: 346181xCD3 monoparatopic PSMAxCD3 bispecific antibody (bispecific antibody, human IgG4 S228P, kappa, F234A L235A)
heavy 1: QLQLQESGPGLVKPSETLSLTCTVSGGSISSSNYFWGWIRQSPGKGLEWIGSIDYSGYTYYNPSLKSRVTISVDTSKNQFSLKLSSVTAADTAVYNCARHKAATADFDYRGQGTLVTVSSESKYGPPCPPCPAPEAAGGPSVFLFPPKPKDTLMISRTPEVTCVVVDVSQEDPEVQFNWYVDGVEVHNAKTKPREEQFNSTYRVVSVLTVLHQDWLNGKEYKCKVSNKGLPSSIEKTISKAKGQPREPQVYTLPPSQEEMTKNQVSLSCAVKGFYPSDIAVEWESNGQPENNYKTTPPVLDSDGSFFLVSRLTVDKSRWQEGNVFSCSVMHEALHNHYTQKSLSLSLGK
heavy 2: EVQLVESGGGLVQPGRSLRLSCAASGFTFDDYAMHWVRQAPGKGLEWVSGISWNSGSIGYADSVKGRFTISRDNAKNSLYLQMNSLRAEDTALYYCAKDSRGYGDYRLGGAYWGQGTLVTVSSASTKGPSVFPLAPCSRSTSESTAALGCLVKDYFPEPVTVSWNSGALTSGVHTFPAVLQSSGLYSLSSVVTVPSSSLGTKTYTCNVDHKPSNTKVDKRVESKYGPPCPPCPAPEAAGGPSVFLFPPKPKDTLMISRTPEVTCVVVDVSQEDPEVQFNWYVDGVEVHNAKTKPREEQFNSTYRVVSVLTVLHQDWLNGKEYKCKVSNKGLPSSIEKTISKAKGQPREPQVYTLPPSQEEMTKNQVSLWCLVKGFYPSDIAVEWESNGQPENNYKTTPPVLDSDGSFFLYSRLTVDKSRWQEGNVFSCSVMHEALHNHYTQKSLSLSLGK
light: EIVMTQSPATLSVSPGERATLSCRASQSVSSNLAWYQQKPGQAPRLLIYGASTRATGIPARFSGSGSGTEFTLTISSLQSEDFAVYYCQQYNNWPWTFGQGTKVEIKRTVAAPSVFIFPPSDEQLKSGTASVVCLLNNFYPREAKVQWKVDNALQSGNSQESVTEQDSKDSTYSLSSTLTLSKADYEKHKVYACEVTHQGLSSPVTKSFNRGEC
notes: three-chain antibody-like molecule; also called monoparatopic molecule
Kill EC50, 22Rv1 cells, resting T-cells [3]: 52.8 nM | Kill EC50, LNCAP cells, resting T-cells [3]: 14.6 nM | Kill EC50, MDA-PCa-2b cells, resting T-cells [3]: 23.6 nM | Kill EC50, PC3-PSMA cells, resting T-cells [3]: 3.7 nM

EC50 [2]: 3 nM | IFNγ EC50, 22Rv1 cells [3]: 380 nM | IFNγ EC50, LNCAP cells [3]: 3.29 nM | IFNγ EC50, MDA-PCa-2b cells [3]: 0.9 nM | IFNγ EC50, PC3-PSMA cells [3]: 1.01 nM | IL-2 EC50, LNCAP cells [3]: 3.73 nM | IL-2 EC50, MDA-PCa-2b cells [3]: 1.11 nM | IL-2 EC50, PC3-PSMA cells [3]: 1.1 nM | EC50 [4]: 2 nM | EC50 [5]: 6 nM | EC50 [6]: 2 nM
B7: 350123xCD3 biparatopic PSMAxCD3 multi-specific antibody (bispecific antibody, human IgG4 S228P, kappa, F234A L235A)
heavy 1: QLQLQESGPGLVKPSETLSLTCTVSGGSISSSNYFWGWIRQSPGKGLEWIGSIDYSGYTYYNPSLKSRVTISVDTSKNQFSLKLSSVTAADTAVYNCARHKAATADFDYRGQGTLVTVSSGGGGSGGGGSQVQLVESGGGVVQPGRSLRLSCAASGFSFSRYGMHWVRQAPGKGLEGVAVIWYDGSNRYYADSVKGRFTISRDNSKNTLYLQMNSLRAEDTAVYYCAREPRIGYYYESSGYYSLDYRGQGTLVTVSSESKYGPPCPPCPAPEAAGGPSVFLFPPKPKDTLMISRTPEVTCVVVDVSQEDPEVQFNWYVDGVEVHNAKTKPREEQFNSTYRVVSVLTVLHQDWLNGKEYKCKVSNKGLPSSIEKTISKAKGQPREPQVYTLPPSQEEMTKNQVSLSCAVKGFYPSDIAVEWESNGQPENNYKTTPPVLDSDGSFFLVSRLTVDKSRWQEGNVFSCSVMHEALHNHYTQKSLSLSLGK
heavy 2: B6 heavy 2
light: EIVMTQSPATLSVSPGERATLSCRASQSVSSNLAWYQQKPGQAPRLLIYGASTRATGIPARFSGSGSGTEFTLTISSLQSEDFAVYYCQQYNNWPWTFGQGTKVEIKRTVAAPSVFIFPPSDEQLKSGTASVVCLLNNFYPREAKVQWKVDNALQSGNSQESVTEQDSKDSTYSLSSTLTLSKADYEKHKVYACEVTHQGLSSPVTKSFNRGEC
notes: also called biparatopic molecule
Kill EC50, 22Rv1 cells, resting T-cells [3]: 0.42 nM | Kill EC50, LNCAP cells, resting T-cells [3]: 0.84 nM | Kill EC50, MDA-PCa-2b cells, resting T-cells [3]: 0.41 nM | Kill EC50, PC3-PSMA cells, resting T-cells [3]: 0.4 nM
